Laboratory results as given in the supplement of paper PMC10567573.

B1: ZNF8 (parent)
chain: RTHTGEKPYTCSVCGKSFSRTTCL
B2: SPATS1 (parent)
chain: GRKKYDIDPRNGIPKLTPGDNPYM

Variants of: B1
Experiment: protein stability index of a GFP-peptide fusion (GPS, HEK-293T) (PSI 1-6); higher = more stable
Settings: c terminus: a fixed tail appended
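Also: lentivirally expressed fusions sorted by FACS into six bins by GFP to DsRed ratio, PSI derived from sequencing read proportions per bin multiplied by bin number.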

| Variant | protein stability index |
| --- | --- |
| RTHKGEKPYTCSVCGKSFSRTTCL | 3.02 |
| RTHTGEKPYTCSVCGKSMSRTTCL | 1.89 |
| RTHTGEKPYTCSVCGKSVSRTTCL | 2.5 |
| RTHTGEKPYTCSVCGKSTSRTTCL | 2.48 |
| RTHTGEKPYTCSVCGKSQSRTTCL | 2.39 |
| RTHTGEKPYTCSVCGKSPSRTTCL | 2.01 |
| GTHTGEKPYTCSVCGKSFSRTTCL | 3 |
| NTHTGEKPYTCSVCGKSFSRTTCL | 2.6 |
| ETHTGEKPYTCSVCGKSFSRTTCL | 3.13 |
| MTHTGEKPYTCSVCGKSFSRTTCL | 2.61 |
| QTHTGEKPYTCSVCGKSFSRTTCL | 2.33 |
| HTHTGEKPYTCSVCGKSFSRTTCL | 2.85 |
| TTHTGEKPYTCSVCGKSFSRTTCL | 3.04 |
| VTHTGEKPYTCSVCGKSFSRTTCL | 3.18 |
| KTHTGEKPYTCSVCGKSFSRTTCL | 2.24 |
| RTHTGEKRYTCSVCGKSFSRTTCL | 2.46 |
| RTHTGEKDYTCSVCGKSFSRTTCL | 2.78 |
| RTHTGEKIYTCSVCGKSFSRTTCL | 3.05 |
| RTHTGEKVYTCSVCGKSFSRTTCL | 2.59 |
| RTHTGEKEYTCSVCGKSFSRTTCL | 2.95 |
| RTHTGEKLYTCSVCGKSFSRTTCL | 3.12 |
| RTHTGEKTYTCSVCGKSFSRTTCL | 2.86 |
| RTHTGEKSYTCSVCGKSFSRTTCL | 2.17 |
| RTHTGEKPYTCSVCGKSFSRTTGL | 2.43 |

| Variant | protein stability index |
| --- | --- |
| RTHTGEKPYTCSVCGKSFSRTTWL | 1.78 |
| RTHTGEKPYTCSVCGKSFSRTTQL | 2.24 |
| RTHTGAKPYTCSVCGKSFSRTTCL | 2.31 |
| RTHTGWKPYTCSVCGKSFSRTTCL | 2.06 |
| RTHTGSKPYTCSVCGKSFSRTTCL | 1.92 |
| RTHTGQKPYTCSVCGKSFSRTTCL | 2.06 |
| RTHTGRKPYTCSVCGKSFSRTTCL | 1.92 |
| RTHTGTKPYTCSVCGKSFSRTTCL | 2.08 |
| RTHTGYKPYTCSVCGKSFSRTTCL | 2.11 |
| RAHTGEKPYTCSVCGKSFSRTTCL | 2.32 |
| RCHTGEKPYTCSVCGKSFSRTTCL | 3.48 |
| RMHTGEKPYTCSVCGKSFSRTTCL | 2.39 |
| RQHTGEKPYTCSVCGKSFSRTTCL | 2.66 |
| RTHTGEKPYTCSECGKSFSRTTCL | 2.47 |
| RTHTGEKPYTCSNCGKSFSRTTCL | 2.26 |
| RTHTGEKPYTCSWCGKSFSRTTCL | 1.65 |
| RTHTGEKPYTCSFCGKSFSRTTCL | 2.48 |
| RTHTGEKPYTCSTCGKSFSRTTCL | 1.89 |
| RTHTGEKPYTCSQCGKSFSRTTCL | 1.28 |
| RTHTGEKPYTCSCCGKSFSRTTCL | 3.54 |
| RTHTGEKPYTCSKCGKSFSRTTCL | 2.61 |
| RTHTGEKPYTQSVCGKSFSRTTCL | 3.18 |
| RTHTGEKPYTMSVCGKSFSRTTCL | 3.35 |
| RTHTGEKPYTDSVCGKSFSRTTCL | 2.83 |

| Variant | protein stability index |
| --- | --- |
| RTHTGEKPYTKSVCGKSFSRTTCL | 2.25 |
| RTHTGEKPYTVSVCGKSFSRTTCL | 2.24 |
| RTHTGEKPYTWSVCGKSFSRTTCL | 1.82 |
| RTHTGEKPYTLSVCGKSFSRTTCL | 2.43 |
| RTHTGEKPYTNSVCGKSFSRTTCL | 2.79 |
| RTHTGEKPYTFSVCGKSFSRTTCL | 2.23 |
| RTHTGEKPYTRSVCGKSFSRTTCL | 2.39 |
| RTHTGEKPYTPSVCGKSFSRTTCL | 2.56 |
| RTHTGEKPYTCSVCSKSFSRTTCL | 1.87 |
| RTHTGEKPYTCSVCRKSFSRTTCL | 2.17 |
| RTHTGEKPYTCSVCTKSFSRTTCL | 1.65 |
| RTHTGEKPYTCSVCAKSFSRTTCL | 1.88 |
| RTHTGEKPYTCSVCDKSFSRTTCL | 2.36 |
| RTHTGEKPYTCSVCEKSFSRTTCL | 2.15 |
| RTHTGEKPYTCSVCLKSFSRTTCL | 1.99 |
| RTHTGEKPYTCSVCGKSFSRTTCA | 2.56 |
| RTHTGEKPYTCSVCGKSFSRTTCC | 4.72 |
| RTHTGEKPYTCSVCGKSFSRTTCW | 2.8 |
| RTHTGEKPYTCSVCGKSFSRTTCN | 3.03 |
| RTHTGEKPYTCSVCGKSFSRTTCT | 3.08 |
| RTHTGEKPYTCSVCGKSFSRTTCK | 2.76 |
| RTHTGEKPYTCSVCGKSFSRTTCQ | 2.96 |

Variants of: B2
Experiment: as above
Settings: c terminus: a fixed tail appended

| Variant | protein stability index |
| --- | --- |
| GRKKYDIDPRNGIPKLTPGDNPTM | 4.6 |
| GRKKYDIDPRNGIPKLTPGDNPSM | 3.94 |
| GRKKYDIDPRNGIPKLTPGDNPVM | 4.18 |
| GRKKYDIDPRNGIPKLTPGDNPRM | 4.34 |
| GRKKYDIDPRNGIPKLTPGDNPWM | 3.05 |
| GRKKYDIDPRNGIPKLTPGDNPYP | 3.98 |
| GRKKYDIDPRNGIPKLTPGDNPYS | 4.21 |
| GRKKYDIDPRNGIPKLTPGDNPYR | 3.59 |
| GRKKYDIDPRNGIPKLTPGDNPYY | 3.73 |
| GRKKYDIDPRNGIPKLTPGDNPYK | 4.03 |
| GRKKYDIDPRNGIPKLTPGDNPYV | 4.22 |
| GRKKYDIDPRNGIPKLTPGDNPYF | 3.1 |
| GRKKYDIDPRNGIPKLTPGDNPYL | 3.62 |
| GRKKYDIDPRNGIPKLTPGDNPYT | 4.04 |
| GRKKYDIDPRNGIPKLTPGDNPYH | 3.76 |
| GRKKYDIDPRNGIPKLTPGDNPYC | 3.73 |
| GRKKYDIDPRNGIPKLTPGDNPYN | 4.11 |
| GRKKYDIDPRNGIPKLTPGDNPYI | 3.46 |
| GRKKYDIDPRNGIPKLTPGDNPYD | 4.4 |
| GRKKYDIDPRNGIPKLTPGDNPYG | 3.5 |
| GRKKYDIDPRNGIPKLTPGDNPYQ | 4.02 |
| GRKKYDIDPRNGIPKLTPGDNPYA | 4.21 |
| GRKKYDIDPRNGIPKLTPGDNPYE | 4.56 |
| GRKKYDIDPRNGIPKLTPGDNPYW | 3.53 |
